Data on six molecules can be found in PMC11965310, “Inhibition of tau neuronal internalization using anti-tau single domain antibodies” (Nature Communications, 2025).

Conditions in all cases: both partners purified
One experiment deals with T1, tau2N4R (Homo sapiens, UniProt P10636-8, biotin (NHS-biotin, 3 molar excess) when immobilised in SPR; 15N-labelled in NMR).
T1 construct: tau protein, isoform 2N4R, the largest tau isoform; Expressed from pET15b-tau2N4R; also called full-length tau2N4R; largest tau isoform; source: E. coli BL21 (DE3), purified (heating at 75 °C, cation exchange)
The experiment is described as follows: SPR; biotinylated tau2N4R, tau1N4R or tauMTBD captured on a streptavidin (SA) chip; VHHs without tag as analytes, 0.0625-4 μM, single-cycle kinetics; 25 °C, HBS EP+; 1:1 Langmuir model. In general terms: In SPR one partner is held on a chip, and binding of the other changes the refractive index at the surface.

In the next experiment the target is T2, tau1N4R (Homo sapiens, UniProt P10636-7, biotin (NHS-biotin, 3 molar excess) when immobilised in SPR; Alexa Fluor 546 C5-maleimide on its two native cysteine residues in the uptake assay).
T2 construct: tau protein, isoform 1N4R; Used without a stated label as analyte on LRP1 cluster III; also called full-length tau1N4R; monomeric tau1N4R; source: E. coli BL21 (DE3), purified (heating at 75 °C, cation exchange)
The experiment is described as above.

A further experiment concerns the target T3, tauMTBD (Homo sapiens, UniProt P10636, biotin (NHS-biotin, ratio 1:0.5) when immobilised in SPR; Atto488 NHS ester in the uptake assay).
T3 construct: also called tauMTBD fragment; source: E. coli BL21 (DE3), purified (heating at 75 °C, cation exchange)
Described as above.

For experiment [1], the target named is T4, tau[369–381] C-terminal peptide (Homo sapiens).
T4 construct: also called tau-C-ter peptide; tau-Cter peptide
T4 chain: KKIETHKLTFREN
The experiment is described as follows: SPR; same data as the multi-cycle kinetics; steady-state analysis of maximum responses, one-site specific binding model.

Experiment [2] has as its target T4, tau[369–381] C-terminal peptide. In words: SPR; biotinylated VHH-Cys captured on SA chip; tau[369-381] peptide as analyte, multi-cycle kinetics; 25 °C, HBS EP+; kinetic analysis, 1:1 Langmuir model.
Experiment [3] shares this target. The description is as above.
Experiment [4] has the same target. In words: AlphaScreen or HTRF; 6His-VHH bound by anti-6His antibody-Terbium (1.5 nM) and 6His-VHH bound by anti-6His antibody-D2 (20 nM); tau-Cter peptide 32 nM to 100 µM; 1 h at room temperature. In general terms: Bead proximity is the source of the signal in Alpha formats.
For experiment [5] the target is unchanged. In words: SPR; same data as the multi-cycle kinetics; steady-state analysis of maximum responses, one-site specific binding model.

T1 sequence (P10636 other isoform, or with tags, fused parts or gaps): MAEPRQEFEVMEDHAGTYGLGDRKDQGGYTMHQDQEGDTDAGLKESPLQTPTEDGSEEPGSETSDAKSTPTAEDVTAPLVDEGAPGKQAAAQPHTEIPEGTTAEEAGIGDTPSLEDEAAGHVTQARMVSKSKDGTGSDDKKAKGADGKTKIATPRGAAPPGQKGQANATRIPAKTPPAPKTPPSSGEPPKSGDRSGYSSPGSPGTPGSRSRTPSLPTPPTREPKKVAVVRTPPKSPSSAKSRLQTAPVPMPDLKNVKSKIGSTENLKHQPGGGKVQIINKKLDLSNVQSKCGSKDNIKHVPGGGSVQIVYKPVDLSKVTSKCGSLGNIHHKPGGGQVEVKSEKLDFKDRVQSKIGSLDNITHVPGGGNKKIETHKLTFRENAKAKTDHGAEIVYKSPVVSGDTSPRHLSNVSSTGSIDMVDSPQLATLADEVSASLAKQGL
T2 sequence (P10636 other isoform, or with tags, fused parts or gaps): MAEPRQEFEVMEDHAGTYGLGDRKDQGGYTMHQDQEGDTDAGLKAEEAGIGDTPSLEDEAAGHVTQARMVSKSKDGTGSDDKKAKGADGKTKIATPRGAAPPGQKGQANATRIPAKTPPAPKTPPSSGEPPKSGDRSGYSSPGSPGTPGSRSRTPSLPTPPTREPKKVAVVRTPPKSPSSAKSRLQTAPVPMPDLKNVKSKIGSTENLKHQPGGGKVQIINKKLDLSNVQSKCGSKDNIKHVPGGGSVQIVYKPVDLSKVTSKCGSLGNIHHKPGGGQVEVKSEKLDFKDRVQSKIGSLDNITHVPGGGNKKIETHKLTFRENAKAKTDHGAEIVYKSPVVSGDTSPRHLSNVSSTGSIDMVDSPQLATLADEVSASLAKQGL
T3 sequence (P10636 whole entry, looked up, the tested form may be a part): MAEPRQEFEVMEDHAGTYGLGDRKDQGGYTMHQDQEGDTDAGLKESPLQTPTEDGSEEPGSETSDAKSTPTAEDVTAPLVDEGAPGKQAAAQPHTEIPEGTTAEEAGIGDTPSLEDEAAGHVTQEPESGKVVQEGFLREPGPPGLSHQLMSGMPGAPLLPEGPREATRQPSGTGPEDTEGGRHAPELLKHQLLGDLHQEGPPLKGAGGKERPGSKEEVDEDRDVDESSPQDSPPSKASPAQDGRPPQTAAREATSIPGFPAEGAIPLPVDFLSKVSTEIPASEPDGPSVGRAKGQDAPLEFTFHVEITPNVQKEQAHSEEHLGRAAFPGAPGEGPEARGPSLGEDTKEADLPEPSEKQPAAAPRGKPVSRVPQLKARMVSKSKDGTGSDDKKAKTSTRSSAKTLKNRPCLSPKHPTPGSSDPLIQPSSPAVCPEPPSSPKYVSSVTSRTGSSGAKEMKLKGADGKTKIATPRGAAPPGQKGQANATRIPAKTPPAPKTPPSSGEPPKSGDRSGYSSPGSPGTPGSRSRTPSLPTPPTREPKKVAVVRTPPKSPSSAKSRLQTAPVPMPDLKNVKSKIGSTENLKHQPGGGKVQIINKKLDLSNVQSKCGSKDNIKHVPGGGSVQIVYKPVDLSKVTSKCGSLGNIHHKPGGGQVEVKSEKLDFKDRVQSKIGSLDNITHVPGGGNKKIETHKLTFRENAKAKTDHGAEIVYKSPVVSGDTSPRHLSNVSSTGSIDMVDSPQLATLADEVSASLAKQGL

B1: VHH F8-2 (VHH)
VHH: EVQLQASGGGFVQPGGSLRLSCAASGGTSYWDGMGWFRQAPGKEREFVSAISGRGNIGTYYADSVKGRFTISRDNSKNTVYLQMNSLRAEDTATYYCAAFRHEVHGSMRHEWEVIKYWGQGTQVTVSS
notes: source: E. coli periplasm, purified (IMAC, SEC, TEV cleavage, second IMAC); not shown: His6, N-terminal, cleaved
In the experiment with tau2N4R, B1 came in with a Kd of 753 nM, a koff of 0.04 s⁻¹ and a kon of 53100 M⁻¹ s⁻¹. In the experiment with tau1N4R, this molecule displayed a Kd of 740 nM, a koff of 0.0425 s⁻¹ and a kon of 57500 M⁻¹ s⁻¹.

B2: VHH H3-2 (VHH)
VHH: EVQLQASGGGFVQPGGSLRLSCAASGYTSGDEIMGWFRQAPGKEREFVSAISWQSGTSTYYADSVKGRFTISRDNSKNTVYLQMNSLRAEDTATYYCAPMTLAETYYEWLISGYWGQGTQVTVSS
notes: From the Nali-H1 VHH library; Forms a swapped dimer in the crystal and mostly a dimer in SEC at 20 µM; Coupled to 10 nm gold beads for electron microscopy; source: E. coli periplasm, purified (IMAC, SEC, TEV cleavage, second IMAC); not shown: His6, N-terminal, cleaved
In the case of B2, the binding result with tauMTBD was “no binding (tested: 4 μM)”. In the experiment with tau2N4R, this molecule registered a Kd of 8.9 nM, a koff of 0.0056 s⁻¹ and a kon of 630000 M⁻¹ s⁻¹. In addition, in the experiment with tau1N4R, the affinity, expressed as Kd, was 11 nM; the koff is 0.006 s⁻¹; the kon worked out at 554000 M⁻¹ s⁻¹.

B3: biotinylated VHH H3-2 with a cysteine at the C-terminus (VHH)
VHH: EVQLQASGGGFVQPGGSLRLSCAASGYTSGDEIMGWFRQAPGKEREFVSAISWQSGTSTYYADSVKGRFTISRDNSKNTVYLQMNSLRAEDTATYYCAPMTLAETYYEWLISGYWGQGTQVTVSS
notes: as the VHH chain of m8; additional C-terminal cysteine; source: E. coli periplasm, purified (IMAC, SEC, TEV cleavage, second IMAC); not shown: His6, N-terminal, cleaved
For the molecule B3, in experiment [1], binding was put at a Kd of 297 nM and the “stoichiometry N” value is 0.41. Moreover, the Kd in experiment [2] lay within 297 to 380 nM. In experiment [3], this molecule returned a Kd of 280 nM, a koff of 0.071 s⁻¹ and a kon of 192000 M⁻¹ s⁻¹.

B4: 6His-VHH H3-2 (VHH)
VHH: EVQLQASGGGFVQPGGSLRLSCAASGYTSGDEIMGWFRQAPGKEREFVSAISWQSGTSTYYADSVKGRFTISRDNSKNTVYLQMNSLRAEDTATYYCAPMTLAETYYEWLISGYWGQGTQVTVSS
notes: as the VHH chain of m8; The construct has a TEV site between the 6-His tag and the VHH; also called 6Histag-H3-2; source: E. coli periplasm, purified; not shown: His6, N-terminal, kept
In experiment [4], B4 registered an EC50 of 2700 nM.

B5: VHH E2-2 (VHH)
VHH: EVQLQASGGGFVQPGGSLRLSCAASGSTYDFDAMGWFRQAPGKEREFVSAISGDADLARYYADSVKGRFTISRDNSKNTVYLQMNSLRAEDTATYYCAAFRHEVHGSMRHEWEVIKYWGQGTQVTVSS
notes: From the Nali-H1 VHH library; source: E. coli periplasm, purified (IMAC, SEC, TEV cleavage, second IMAC); not shown: His6, N-terminal, cleaved
As for B5, the binding result with tauMTBD is reported as “no binding (tested: 4 μM)”. In the experiment with tau2N4R, the Kd stood at 84 nM, the dissociation rate constant (koff) turned out to be 0.0038 s⁻¹ and the kon was found to be 44900 M⁻¹ s⁻¹. In the experiment with tau1N4R, this molecule registered a Kd of 96 nM, a koff of 0.0045 s⁻¹ and a kon of 46700 M⁻¹ s⁻¹.

B6: biotinylated VHH E2-2 with a cysteine at the C-terminus (VHH)
VHH: EVQLQASGGGFVQPGGSLRLSCAASGSTYDFDAMGWFRQAPGKEREFVSAISGDADLARYYADSVKGRFTISRDNSKNTVYLQMNSLRAEDTATYYCAAFRHEVHGSMRHEWEVIKYWGQGTQVTVSS
notes: as the VHH chain of m11; additional C-terminal cysteine; source: E. coli periplasm, purified (IMAC, SEC, TEV cleavage, second IMAC); not shown: His6, N-terminal, cleaved
In the case of B6, the Kd in experiment [5] fell in the range of 518 to 820 nM. In experiment [1], binding was put at a Kd of 578 nM and the “stoichiometry N” value was found to be 0.45. In experiment [3], this molecule returned a Kd of 820 nM, a koff of 0.124 s⁻¹ and a kon of 154000 M⁻¹ s⁻¹.

For orientation: Kd means the free concentration of one partner at which half of the binding sites on the other are occupied at equilibrium, for simple one-to-one binding. What is called koff is a measure of how fast the partners let go of each other. The low end stands for slow dissociation, the high end for fast dissociation. For orientation: kon means a measure of how fast the partners come together. A lower kon goes with slower complex formation. By stoichiometry N is commonly meant a count of units in the complex or per binding partner. In general, EC50 refers to the concentration at which the effect is half-maximal. Lower therefore signals a more potent agent.
